B1: His6-ParE toxin (ParE1) of Caulobacter crescentus (natural protein, UniProt Q9A9T8 1-96, looked up)
chain: MKPYRLSRRAKADLDDIWTYSEQRWGVEQAADYARELQATIEMIAEHPGMGQPDENLRAGYRRCASGSHVVFYRVGVRVEIIRVLHQSMNARAHLG
modifications: selenomethionine-labeled in the crystal and SAXS samples

Columns and labels:
[1] = target: ParD antitoxin (ParD1) of Caulobacter crescentus (Caulobacter crescentus); assay: SEC
crystal structure = target: the molecule itself; assay: crystal structure

Molecule | stoichiometry N [1] | binding result (crystal structure)
ParD antitoxin (ParD1) of Caulobacter crescentus (natural protein) | 2 | –
B1 | – | binds

Source: PMC2846751 (Biochemistry, 2010)
